Assays:
[1] = molecular target: T1, VBP (VirD2-binding protein) (Agrobacterium fabrum, UniProt Q7CW19); test: isothermal titration calorimetry
T1 construct: gene Atu4856; full-length VBP with 6His tag (pET32a, E. coli BL21(DE3)); homodimer 75 kDa; predicted NT domain aa 10-133, HEPN domain aa 159-279

[2] = molecular target: C-terminal (HEPN) domain of VBP (Agrobacterium tumefaciens C58); test: AUC; sedimentation velocity, 1 mg/ml, 40,000 rpm, 24°C, absorbance at 280 nm, Sedfit
[3] = molecular target: C-terminal (HEPN) domain of VBP (Agrobacterium tumefaciens C58); test: SEC; size-exclusion chromatography of the purified protein, apparent mass against molecular weight standards; 200 mM NaCl buffers (VBP: 20 mM Tris-HCl pH 8.0, 5% glycerol; HEPN: 30 mM CHES pH 9.0, 5% glycerol; NT: 30 mM Tris-HCl pH 7.5)
[4] = molecular target: VirD2-binding protein (VBP), full-length, wild type, 6His-tagged (Agrobacterium tumefaciens C58); test: AUC; sedimentation velocity, 1 mg/ml, 40,000 rpm, 24°C, absorbance at 280 nm, Sedfit
[5] = molecular target: VirD2-binding protein (VBP), full-length, wild type, 6His-tagged (Agrobacterium tumefaciens C58); test: SEC; size-exclusion chromatography of the purified protein, apparent mass against molecular weight standards; 200 mM NaCl buffers (VBP: 20 mM Tris-HCl pH 8.0, 5% glycerol; HEPN: 30 mM CHES pH 9.0, 5% glycerol; NT: 30 mM Tris-HCl pH 7.5)

With `Nc1ncnc2c1ncn2[C@@H]1O[C@H](COP(=O)(O)OP(=O)(O)NP(=O)(O)O)[C@@H](O)[C@H]1O` [AMPPNP] the Kd [1] was 2000 nM.
In the case of “C-terminal (HEPN) domain of VBP (domain or fragment)”, the stoichiometry N [2] is reported as 2 and the stoichiometry N [3] is reported as 2.
In the case of “VirD2-binding protein (VBP), full-length, wild type, 6His-tagged (natural protein)”, the stoichiometry N [4] is reported as 2 and the stoichiometry N [5] is reported as 2.
